Kd, IC50 and EC50 data for 22 molecules are collected here from US11370837 (dated 2022).

Changes are numbered by the printed parent chain.

T1: human TIGIT-Fc (human, UniProt Q495A1)
T1 chain: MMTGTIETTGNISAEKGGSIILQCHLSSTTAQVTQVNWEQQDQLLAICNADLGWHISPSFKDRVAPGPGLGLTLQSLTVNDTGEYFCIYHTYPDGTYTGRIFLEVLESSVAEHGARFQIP

T2: human TIGIT on CHO cells (human, UniProt Q495A1)
T2 chain: T1 chain

B1: ADI-27278 Fab (antibody, V domains shown)
VH: EVQLVESGGGLVQPGGSLRLSCAASGFTFSSYSMNWVRQAPGKGLEWVSYISGSSSTIYYADSVKGRFTISRDNAKNSLYLQMNSLRAEDTAVYYCARHRIADSPSRAFDIWGQGTMVTVSS
VL: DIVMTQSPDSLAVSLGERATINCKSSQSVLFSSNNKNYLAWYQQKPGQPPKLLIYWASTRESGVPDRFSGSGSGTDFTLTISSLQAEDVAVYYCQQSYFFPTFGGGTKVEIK
B2: ADI-27301 Fab (antibody, V domains shown)
VH: QLQLQESGPGLVKPSETLSLTCTVSGGSISSSSYYWGWIRQPPGKGLEWIGSIYYSGSTYYNPSLKSRVTISVDTSKNQFSLKLSSVTAADTAVYYCAREAGRGTTGLLFDYWGQGTLVTVSS
VL: DIQMTQSPSTLSASVGDRVTITCRASQSISSWLAWYQQKPGKAPKLLIYKASSLESGVPSRFSGSGSGTEFTLTISSLQPDDFATYYCQQYGILPRTFGGGTKVEIK
B3: ADI-30311 Fab (antibody, V domains shown)
VH: B2 VH with S30A, S33V, Y60W, G104T, T105G
VL: B2 VL
B4: ADI-27243 Fab (antibody, V domains shown)
VH: QLQLQESGPGLVKPSETLSLTCTVSGGSISSSRYYWGWIRQPPGKGLEWIGSIYYSGSTYYNPSLKSRVTISVDTSKNQFSLKLSSVTAADTAVYYCARDGLYHTPEYFQHWGQGTLVTVSS
VL: EIVLTQSPATLSLSPGERATLSCRASQSVSSYLAWYQQKPGQAPRLLIYDASNRATGIPARFSGSGSGTDFTLTISSLEPEDFAVYYCQQRFAFPYTFGGGTKVEIK
B5: ADI-30336 Fab (antibody, V domains shown)
VH: B4 VH
VL: B4 VL with F94H
B6: ADI-30302 Fab (antibody, V domains shown)
VH: B4 VH with S30G, R33Q, Y55R, S58G
VL: B4 VL
B7: ADI-30272 Fab (antibody, V domains shown)
VH: QVQLVQSGAEVKKPGASVKVSCKASGYTFTEYYMHWVRQAPGQGLEWMGIISPSAGSTSYAQKFQGRVTMTRDTSTSTVYMELSSLRSEDTAVYYCARDHDIAAAGRLADYWGQGTLVTVSS
VL: DIQMTQSPSSVSASVGDRVTITCRASQGISSWLAWYQQKPGKAPKLLISAASSLQSGVPSRFSGSGSGTDFTLTISSLQPEDFATYYCQQAVILPITFGGGTKVEIK
B8: ADI-30278 Fab (antibody, V domains shown)
VH: B7 VH with S59K, A103R, A104L
VL: B7 VL
B9: ADI-27297 Fab (antibody, V domains shown)
VH: B7 VH with E31S, S52N, A55G
VL: B7 VL
B10: ADI-30268 Fab (antibody, V domains shown)
VH: QVQLVQSGAEVKKPGASVKVSCKASGYTFGSYYMGWVRQAPGQGLEWMGIIDPSGGRTSYARKFQGRVTMTRDTSTSTVYMELSSLRSEDTAVYYCARARTPSSWPYGMDVWGQGTTVTVSS
VL: DIQMTQSPSSLSASVGDRVTITCRASQSINSYLNWYQQKPGKAPKLLIYAASSLQSGVPSRFSGSGSGTDFTLTISSLQPEDFATYYCQQSLLTPFTFGGGTKVEIK
B11: ADI-30263 Fab (antibody, V domains shown)
VH: B10 VH with G30L, G35N, R62Q, T101Y, M109T
VL: B10 VL
B12: ADI-30267 Fab (antibody, V domains shown)
VH: B10 VH with G30R, G35S, Y60F, R62Q, T101Y, S103E
VL: B10 VL
B13: ADI-27238 Fab (antibody, V domains shown)
VH: B10 VH with G30T, G35S, D52N, R57S, R62Q, T101Y
VL: B10 VL
B14: ADI-30293 Fab (antibody, V domains shown)
VH: EVQLVESGGGLVQPGGSLRLSCAASGFTFSSYSMNWVRQAPGKGLEWVSYISSSGTINYADSVKGRFTISRDNAKNSLYLQMNSLRAEDTAVYYCARHRIADSPSRAFDIWGQGTMVTVSS
VL: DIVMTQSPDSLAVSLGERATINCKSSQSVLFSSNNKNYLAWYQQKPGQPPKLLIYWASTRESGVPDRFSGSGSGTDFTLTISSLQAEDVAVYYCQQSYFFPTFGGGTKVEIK
B15: ADI-30296 Fab (antibody, V domains shown)
VH: B14 VH with F29I, S30G, S31G, G55S, N58H, A101G, D102R
VL: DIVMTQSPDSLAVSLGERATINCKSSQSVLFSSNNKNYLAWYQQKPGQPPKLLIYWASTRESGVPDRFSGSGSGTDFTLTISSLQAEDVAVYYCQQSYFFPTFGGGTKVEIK
B16: ADI-30286 Fab (antibody, V domains shown)
VH: EVQLLESGGGLVQPGGSLRLSCAASGFTFGPYGMSWVRQAPGKGLEWVSAISGSGASTWYADSVKGRFTISRDNSKNTLYLQMNSLRAEDTAVYYCAKDPGTHYSGYYYIWRYWGQGTLVTVSS
VL: EIVMTQSPATLSVSPGERATLSCRASQSVSSNLAWYQQKPGQAPRLLIYSASTRATGIPARFSGSGSGTEFTLTISSLQSEDFAVYYCQQYVPHPPFTFGGGTKVEIK
B17: ADI-27291 Fab (antibody, V domains shown)
VH: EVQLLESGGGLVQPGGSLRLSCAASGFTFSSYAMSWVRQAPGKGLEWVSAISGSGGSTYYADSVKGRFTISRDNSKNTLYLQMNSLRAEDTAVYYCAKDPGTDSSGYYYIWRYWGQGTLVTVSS
VL: B16 VL
B18: ADI-30283 Fab (antibody, V domains shown)
VH: B16 VH with G30S, A50S, A56G, S57R, W59Y, H103D, Y104S
VL: B16 VL
B19: ADI-30288 Fab (antibody, V domains shown)
VH: B16 VH with Y60H, H103D, Y104S, S105T
VL: B16 VL
B20: ADI-27278 (antibody, V domains shown)
VH: B1 VH
VL: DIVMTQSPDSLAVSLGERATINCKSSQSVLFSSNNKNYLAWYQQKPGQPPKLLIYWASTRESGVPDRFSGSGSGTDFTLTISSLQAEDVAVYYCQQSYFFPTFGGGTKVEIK
B21: ADI-30302 (antibody, V domains shown)
VH: B4 VH with S30G, R33Q, Y55R, S58G
VL: B4 VL
B22: ADI-27243 (antibody, V domains shown)
VH: B4 VH
VL: B4 VL

The first assay addresses T1, human TIGIT-Fc. Briefly: BLI. (In BLI a coated tip is dipped into the sample, and binding shifts an interference pattern.)
As to B1, the dissociation constant Kd stood at 10.9 nM. In other words, the double-digit nanomolar range.
The same measure, in the same setting: the result for B2 reads 8.01 nM; that for B3, 0.807 nM; that for B4, 9.47 nM.
Still for that read-out and setting: in the case of B5 it was 0.566 nM.
Still for that read-out and setting: in the case of B6 it was 0.329 nM; in that of B7, 1.19 nM; in that of B8, 0.243 nM.
As to B9, the affinity, expressed as Kd, was 32.1 nM.
The same measure, in the same setting: in the case of B10 it was 0.571 nM; in that of B11, 0.795 nM.
On the same count and under the same terms, the result for B12 reads 1.66 nM.
The same measure, in the same setting: the result for B13 reads 13.8 nM; that for B14, 3.49 nM; that for B15, 2.43 nM.
In turn, B16 had a Kd of 0.436 nM.
For B17, the dissociation constant (Kd) is 6.48 nM. Against the preceding molecule, the Kd is about 15-fold higher.
For the molecule B18, the Kd is 0.553 nM.
On the same count and under the same terms, the result for B19 reads 0.547 nM.

In the next assay the target is T2, human TIGIT on CHO cells. Briefly: competition, CD155 blocking FACS.
B20 had a 50% inhibitory concentration (IC50) of 0.586 nM.
The molecule B21 registered an IC50 of 0.281 nM.
On the same count and under the same terms, in the case of B22 it was 0.819 nM.

The next assay addresses T2, human TIGIT on CHO cells. Kind of assay: FACS. (In general: Flow cytometry measures light scatter and fluorescence of single cells or particles in a stream.)
B20 yielded an EC50 of 0.968 nM.
On the same count and under the same terms, in the case of B21 it was 0.326 nM; in that of B22, 0.587 nM.

What is called Kd is the constant that tells how readily two partners part at equilibrium. A lower Kd goes with a tighter complex. What is called IC50 is the concentration needed to halve the response being measured. Broadly, the EC50 is the concentration that produces a half-maximal response. Low values mean higher potency in that assay, high ones lower potency in that assay.
